This is an account of results in US20170355769A1 (AbbVie / Abbott, published 2017).

One assay addresses T1, Human full length B7-H3 (human, UniProt Q5ZPR3 29-534).
T1 construct: On 3T12 fibroblasts expressing full length human B7-H3 or on NCI-H1650 cells; signal peptide residues 1-28 stated; also called huB7-H3; CD276
T1 sequence: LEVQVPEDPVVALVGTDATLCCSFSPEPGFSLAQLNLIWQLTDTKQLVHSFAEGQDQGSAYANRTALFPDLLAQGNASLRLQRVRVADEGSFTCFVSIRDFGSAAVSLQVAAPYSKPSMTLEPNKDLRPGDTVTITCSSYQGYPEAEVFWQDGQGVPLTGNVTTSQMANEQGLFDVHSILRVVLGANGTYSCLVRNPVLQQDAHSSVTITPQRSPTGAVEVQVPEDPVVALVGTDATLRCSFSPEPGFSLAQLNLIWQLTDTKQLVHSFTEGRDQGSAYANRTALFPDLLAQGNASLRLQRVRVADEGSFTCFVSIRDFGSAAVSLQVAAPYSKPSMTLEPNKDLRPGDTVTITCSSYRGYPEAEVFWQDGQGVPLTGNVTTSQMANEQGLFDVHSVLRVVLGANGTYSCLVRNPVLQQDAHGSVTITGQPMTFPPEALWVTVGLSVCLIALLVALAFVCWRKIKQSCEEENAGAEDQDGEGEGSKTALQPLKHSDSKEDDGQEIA
The assay can be described thus: FACS, 3T12 transfectants. As for the experimental part:
(§1) A selection of hits were subcloned using the MoFlo (Beckman, Indianapolis, Ind., US) by depositing a single cell per well into 96 well cell culture plates to ensure clonality of the cell line. Resulting colonies were screened for specificity by FACS using mouse 3T12 fibroblast cell lines expressing the human B7-H3, cynomolgous B7-H3 or mouse B7-H3. Isotype of each monoclonal antibody was determined using the Mouse Monoclonal Isostyping Kit (Roche, No. 11-493-027-001, Indianapolis, Ind., USA).
In general terms: In flow cytometry, cells or beads pass a laser one at a time.

Assay [1] concerns the target T2, Cynomolgous B7-H3 on cells (cynomolgus).
T2 construct: whole, on cells; also called cyB7-H3; cyno B7-H3
Put plainly: FACS, 3T12 transfectants. The method, then: as §1

In another assay the target is T3, Mouse B7-H3 on cells (mouse, UniProt Q8VE98 29-316).
T3 construct: whole, on cells
T3 sequence (looked up): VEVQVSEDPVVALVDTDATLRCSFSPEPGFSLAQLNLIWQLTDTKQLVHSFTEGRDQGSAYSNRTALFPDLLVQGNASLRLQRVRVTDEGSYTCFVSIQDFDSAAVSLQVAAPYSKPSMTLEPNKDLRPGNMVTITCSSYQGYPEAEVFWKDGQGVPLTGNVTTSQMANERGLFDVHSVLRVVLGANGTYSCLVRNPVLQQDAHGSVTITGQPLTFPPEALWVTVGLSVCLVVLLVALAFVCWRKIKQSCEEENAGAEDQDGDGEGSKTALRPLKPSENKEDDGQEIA
The assay can be described thus: FACS, 3T12 transfectants. The method, then:
as §1

Assay [2] addresses T4, Human B7-H3-ECD (His tag) (human, UniProt Q5ZPR3 29-461).
T4 construct: SPR analyte; also called huB7-H3; soluble ECD of human B7-H3
T4 sequence: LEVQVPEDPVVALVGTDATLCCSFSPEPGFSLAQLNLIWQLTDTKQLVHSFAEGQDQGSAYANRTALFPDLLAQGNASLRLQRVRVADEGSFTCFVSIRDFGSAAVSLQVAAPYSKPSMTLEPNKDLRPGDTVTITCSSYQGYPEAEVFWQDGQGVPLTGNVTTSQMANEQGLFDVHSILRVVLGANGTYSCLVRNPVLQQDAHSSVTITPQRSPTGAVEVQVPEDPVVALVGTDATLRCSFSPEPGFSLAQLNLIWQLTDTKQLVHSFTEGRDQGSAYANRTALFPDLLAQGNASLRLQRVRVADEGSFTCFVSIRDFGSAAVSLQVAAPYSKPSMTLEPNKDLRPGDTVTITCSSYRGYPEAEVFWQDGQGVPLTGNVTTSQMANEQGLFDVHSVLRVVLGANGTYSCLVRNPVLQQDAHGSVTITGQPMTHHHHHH
Put plainly: SPR, mAb captured, ECD analyte.

Another assay addresses T5, Cyno B7-H3-ECD (his tag) (cynomolgus).
T5 construct: SPR analyte; also called soluble ECD of cyno B7-H3
T5 chain: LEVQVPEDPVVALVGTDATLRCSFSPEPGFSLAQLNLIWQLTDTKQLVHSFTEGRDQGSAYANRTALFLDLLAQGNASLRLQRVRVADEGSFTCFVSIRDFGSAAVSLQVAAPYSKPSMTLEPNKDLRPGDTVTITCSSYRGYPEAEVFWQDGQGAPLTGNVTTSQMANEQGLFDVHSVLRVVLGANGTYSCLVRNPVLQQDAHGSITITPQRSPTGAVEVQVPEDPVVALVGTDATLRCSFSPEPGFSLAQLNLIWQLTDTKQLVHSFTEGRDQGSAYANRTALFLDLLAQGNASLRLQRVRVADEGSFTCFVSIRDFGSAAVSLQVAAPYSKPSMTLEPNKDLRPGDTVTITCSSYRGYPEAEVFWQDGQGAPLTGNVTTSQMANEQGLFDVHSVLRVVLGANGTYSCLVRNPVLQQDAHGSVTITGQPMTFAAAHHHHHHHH
Put plainly: SPR, mAb captured, ECD analyte.

B1: Ab18 (antibody, mouse IgG1, V domains shown)
VH: QVQLQQSAAELARPGASVKMSCKASGYSFTSYTIHWVKQRPGQGLEWIGYINPNSRNTDYNQKFKDETTLTADRSSSTAYMQLISLTSEDSAVYYCARYSGSTPYWYFDVWGAGTTVTVSS
VL: QIVLTQSPAILSASPGEKVTMTCRASSSVSYMNWYQQKPGSSPKPWIYATSNLASGVPARFSVSVSGTSHSLTISRVEAEDAATYYCQQWSSNPLTFGAGTKLELK
notes: mouse IgG1/k
Regarding B1, the EC50 stood at 5.98 nM with Human full length B7-H3 and 6.49 nM in assay [1]. In addition, in the assay with Mouse B7-H3 on cells, the binding result is recorded as “no binding”. In addition, the Kd worked out at 0.17 nM in assay [2] and 0.12 nM with Cyno B7-H3-ECD (his tag). The koff in assay [2] stood at 3.6e-05 s⁻¹; with Cyno B7-H3-ECD (his tag), 2.9e-05 s⁻¹. The kon in assay [2] turned out to be 210000 M⁻¹ s⁻¹; with Cyno B7-H3-ECD (his tag), 240000 M⁻¹ s⁻¹.

B2: Ab8 (antibody, mouse IgG1, V domains shown)
VH: EVKLVESGGGLVKPGGSLKLSCAASGFTFSSYGMSWVRQTPEKRLEWVATISGGGNYTYCPDSVKGRFTISRDNAKNNLYLQMSSLRSEDTALYYCTRQRGYDYHYAMDFWGQGTSVTVSS
VL: DIQMTQSPASLSVSVGETVTITCRASENIYSNLAWHQQKQGKSPQLLVYAATNLADGVPSRFSGNGSDTQYSLKINSLQSEDFGSYFCQNFWGTSWTFGGGTKLEIK
notes: mouse IgG1/k
Consider B2, for which the EC50 came out at 3.83 nM with Human full length B7-H3, 8.63 nM in assay [1] and 193 nM in the assay with Mouse B7-H3 on cells. In addition, the Kd (in assay [2]; in the assay with Cyno B7-H3-ECD (his tag)) was 1.7 nM in each case. For the same molecule, the koff in assay [2] was found to be 9.9e-05 s⁻¹; with Cyno B7-H3-ECD (his tag), 0.00026 s⁻¹. Besides, the kon was 58000 M⁻¹ s⁻¹ in assay [2] and 160000 M⁻¹ s⁻¹ with Cyno B7-H3-ECD (his tag).

B3: Ab13 (antibody, mouse IgG1, V domains shown)
VH: DVQLQESGPDLVKPSQSLSLTCTVTGYSITSGYSWHWIRQFPGNKLEWMGYIHSSGSTNYNPSLKSRISINRDTSKNQFFLQLNSVTTEDTATYYCAGYDDYFEYWGQGTTLTVSS
VL: DIVMTQSQKFMSTSVGDRVSVTCKASQNVGFNVAWYQQKPGQSPKALIYSASYRYSGVPDRFTGSGSGTDFTLTISNVQSEDLAEYFCQQYNSYPFTFGSGTKLEIK
notes: mouse IgG1/k
For B3, the EC50 turned out to be 1.94 nM with Human full length B7-H3, 4.12 nM in assay [1] and 25.8 nM in the assay with Mouse B7-H3 on cells. The Kd in assay [2] amounted to 17 nM; in the assay with Cyno B7-H3-ECD (his tag), 8.4 nM. Besides, the koff is 0.0058 s⁻¹ in assay [2] and 0.0037 s⁻¹ with Cyno B7-H3-ECD (his tag). For the same molecule, the kon in assay [2] was found to be 330000 M⁻¹ s⁻¹; in the assay with Cyno B7-H3-ECD (his tag), 440000 M⁻¹ s⁻¹.

B4: Ab5 (antibody, mouse IgG1, V domains shown)
VH: QVQLQQPGDELVKPGASVKLSCKTSGYTFTTDWMHWVKQRPGQGLEWIGMIHPNSGTTNYNEKFKSKAALTVDKSSSTACMQLSSLTSEDSAVYYCARSYWKWYFDVWGTGTTVTVSS
VL: QIVLTQSPAIMSASLGEEITLTCSASSSVSYMHWYQQKSGTSPKLLIYSTSNLASGVPSRFSGSGSGTFYSLTISSVEAEDSADYYCHQWTSYMYTFGGGTKLEIK
notes: mouse IgG1/k
Regarding B4, the EC50 is 2.71 nM in the assay with Human full length B7-H3, 1.91 nM in assay [1] and 6.01 nM with Mouse B7-H3 on cells. Also, the figures for the Kd (in assay [2]; with Cyno B7-H3-ECD (his tag)) were 9.2 nM and 200 nM, respectively. Also, the figures for the koff (in assay [2]; in the assay with Cyno B7-H3-ECD (his tag)) were 0.012 s⁻¹ and 0.28 s⁻¹, respectively. Also, the kon came out at 1.3e+06 M⁻¹ s⁻¹ in assay [2] and 1.4e+06 M⁻¹ s⁻¹ in the assay with Cyno B7-H3-ECD (his tag).

B5: Ab14 (antibody, mouse IgG1, V domains shown)
VH: EVKLVESGGGLVKPGGSLKLSCAASGFTFSSYGMSWVRQTPEKRLEWVATISGGGTNTYYPDSVEGRFTISRDNAKNFLYLQMSSLRSEDTALYYCARHYGSQTMDYWGQGTSVTVSS
VL: DIQMTQSPASLSASVGETVTITCRTSGNIHNYLTWYQQKQGKSPQLLVYNAKTLADGVPSRFSGSGSGTQFSLKINSLQPEDFGSYYCQHFWSIMWTFGGGTKLEIK
notes: mouse IgG1/k
B5: the EC50 with Human full length B7-H3 was 3.03 nM; in assay [1], 2.97 nM; with Mouse B7-H3 on cells, 102 nM. The Kd in assay [2] turned out to be 13 nM; with Cyno B7-H3-ECD (his tag) it was 4.3 nM. The koff in assay [2] was 0.0014 s⁻¹; with Cyno B7-H3-ECD (his tag), 0.003 s⁻¹. The results for the kon (in assay [2]; with Cyno B7-H3-ECD (his tag)) were 110000 M⁻¹ s⁻¹ and 690000 M⁻¹ s⁻¹, respectively.

B6: Ab12 (antibody, mouse IgG1, V domains shown)
VH: EVQLVESGGGLVKPGGSLKLSCAASGFTFSSYAMSWVRQTPEKRLEWVATISSGTNYTYYPDSVKGRFTISRDNAKNTLYLQMTSLRSEDTAMYYCARQGRYSWIAYWGQGTLVTVSA
VL: DIVLTQSPASLAVSLGQRATISCRASKSVSTSDYSYMHWNQQKPGQPPKLLIYLASNLESGVPARFSGSGSGTDFTLNIHPVEEEDAATYYCQHSRELLTFGAGTKLELK
notes: mouse IgG1/k
As to B6, the EC50 with Human full length B7-H3 came out at 3.88 nM; in assay [1], 6.71 nM; in the assay with Mouse B7-H3 on cells, 8.72 nM. The results for the Kd (in assay [2]; in the assay with Cyno B7-H3-ECD (his tag)) were 6.7 nM and at most 0.18 nM, respectively. The koff is 0.00025 s⁻¹ in assay [2] and at most 1e-05 s⁻¹ with Cyno B7-H3-ECD (his tag). The kon worked out at 38000 M⁻¹ s⁻¹ in assay [2] and 55000 M⁻¹ s⁻¹ with Cyno B7-H3-ECD (his tag).

B7: Ab10 (antibody, V domains shown)
VH: DVQLQESGPGLVKPSQSLSLTCTVTGYSITSDYAWNWIRQFPGNRLEWMGHINYSGITNYNPSLKSRISITRDTSKNQFFLQLYSVTTEDTATYFCARRSLFYYYGSSLYAMDYWGQGTSVTVSS
VL: DVVMTQSPFSLPVSLGDQASISCRSSQSLVHSNGNTYLHWYLQKPGQSPKLLIYKVSNRFSGVPDRFSGSGSGTDFTLKISRVEAEDLGVYFCSQSTHVPWTFGGGTKLEIK
notes: mouse IgG2b/k
As to B7, the results for the EC50 (in the assay with Human full length B7-H3; in assay [1]; in the assay with Mouse B7-H3 on cells) were 3.97 nM, 4.46 nM and 3.8 nM, respectively. The Kd in assay [2] is 4.6 nM; with Cyno B7-H3-ECD (his tag) it was 20 nM. For the same molecule, the figures for the koff (in assay [2]; with Cyno B7-H3-ECD (his tag)) were 0.00019 s⁻¹ and 0.0042 s⁻¹, respectively. The kon in assay [2] was 41000 M⁻¹ s⁻¹; in the assay with Cyno B7-H3-ECD (his tag), 200000 M⁻¹ s⁻¹.

B8: Ab3 (antibody, mouse IgG1, V domains shown)
VH: QVQLQQPGAELVKPGASVKLSCKASGYTFSSYWMHWVKQRPGQGLEWIGLIHPDSGSTNYNEMFKNKATLTVDRSSSTAYVQLSSLTSEDSAVYFCAGGGRLYFDYWGQGTTLTVSS
VL: DVVMTQTPLSLPVSLGDQASISCRSSQSLVHSNGDTYLRWYLQKPGQSPKLLIYKVSNRFSGVPDRFSGSGSGTDFTLKITRVEAEDLGVYFCSQSTHVPYTFGGGTKLEIK
notes: mouse IgG1/k
As to B8, the EC50 with Human full length B7-H3 is 1.66 nM; in assay [1] it was 1.42 nM; with Mouse B7-H3 on cells, 0.94 nM. In addition, the Kd was found to be 19 nM in assay [2] and 26 nM in the assay with Cyno B7-H3-ECD (his tag). The dissociation rate constant (koff) (in assay [2]; in the assay with Cyno B7-H3-ECD (his tag)) was 0.01 s⁻¹ each time. Further, the kon in assay [2] is 520000 M⁻¹ s⁻¹; in the assay with Cyno B7-H3-ECD (his tag) it was 380000 M⁻¹ s⁻¹.

For orientation: EC50 means the concentration at which the effect is half-maximal. Lower therefore signals higher potency in that assay. For orientation: Kd means the equilibrium constant for the complex coming apart. The term koff denotes the rate constant with which the complex falls apart. Read a high koff as a short-lived complex. One may read the kon as the rate constant with which the complex forms. A higher kon goes with fast association.
